Measured values: patent US20100260765A1 (AstraZeneca / MedImmune, published 2010)

B1: 32F4 (antibody, V domains shown)
VH: QLQLQESGPGLVKPSGTLSLSCTVSGGSISSRSDYWGWIRQPPGKGLEWIGTIYYSGNTFYNPSLKSRVTISVDTSKKQFSLKLSSVTAADTAVYYCARQQLVLYYFDYWGQGTLVTVSS
VL: EIVLTQSPGTLSLSPGERATLSCRTSQSVSSSYLAWYQQKPGQAPRLLIYGASSRATGVPDRFSGSGSGTDFSLTISRLEPEDFAVYYCQQYGSSPPLTFGGGTKVEIK
B2: 29D4 (antibody, V domains shown)
VH: QLQLQESGPGLVKPSETLSLTCTVSGGSISSRSNYWGWIRQPPGKGLEWIGTIYYSGHTYYNPSLKSRVSISVDTSKNQFSLKLSSVTATDTALYYCARQQLVLYYFEYWGQGTLVTVSS
VL: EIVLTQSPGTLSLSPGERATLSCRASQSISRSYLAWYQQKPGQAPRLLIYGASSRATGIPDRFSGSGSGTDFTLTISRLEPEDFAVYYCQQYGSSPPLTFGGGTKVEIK
B3: 33B1 (antibody, V domains shown)
VH: EVQLVESGGGLVKPGGSLRLSCAASGFTFSSYTMNWVRQAPGKGLEWVSFIDSRSSYIYYADSVKGRFTISRDNAKNSLYLQMNSLRAEDTAVYYCSKDDWFEELWGQGTLVTVSS
VL: DIQMTQSPSSLSASVGDRVTITCRASQGIRNDLGWYQQKPGKAPKRLIYATSSLQSGVPSRFSGSGSGTEFTLTISSLQPEDFATYYCLHHNSFPWTFGQGTKVEIK
B4: 31E11 (antibody, V domains shown)
VH: QVQLVESGGGLVKPGGSLRLSCAASGFTFSDYYMSWIRQAPGKGLEWVSYISISGSTIYYADSVKGRFTISRDNAKNSLYLQMNSLRAEDTAVYYCARDDFWSGYYFNWFDPWGQGTLVTVSS
VL: DIQMTQSPSSLSASVGDRVTITCRANQTISTFLNWYQQNPGKAPKLLIYAASSLQSGVPSRFSGSGSGTDFTLTISSLQPEDFATYYCQQTYIIPLTFGGGTKVEIK
B5: 21H6 (antibody, V domains shown)
VH: QVQLVESGGGLVKPGGSLRLSCAASGFTFSDYYMSWIRQAPGKGLEWVSYISNSGITIYYADSVKGRFTISRDNAKNSLYLQMNSLRAGDTAVYYCAREEWYSSRWYRNFDYWGQGTLVTVSS
VL: DIQMTQFSSSLSASVGDRVTITCRASQSISRYLNWYQQKPGKAPKLLIYAASSLQSGVPSRFNGSGSGTDFTLTISSLQPEDFATYYCQQSYSAPLTFGGGTKVEIK

Molecular target: human KDR on cells (human, UniProt P35968 20-1356)
Sequence (P35968 20-1356): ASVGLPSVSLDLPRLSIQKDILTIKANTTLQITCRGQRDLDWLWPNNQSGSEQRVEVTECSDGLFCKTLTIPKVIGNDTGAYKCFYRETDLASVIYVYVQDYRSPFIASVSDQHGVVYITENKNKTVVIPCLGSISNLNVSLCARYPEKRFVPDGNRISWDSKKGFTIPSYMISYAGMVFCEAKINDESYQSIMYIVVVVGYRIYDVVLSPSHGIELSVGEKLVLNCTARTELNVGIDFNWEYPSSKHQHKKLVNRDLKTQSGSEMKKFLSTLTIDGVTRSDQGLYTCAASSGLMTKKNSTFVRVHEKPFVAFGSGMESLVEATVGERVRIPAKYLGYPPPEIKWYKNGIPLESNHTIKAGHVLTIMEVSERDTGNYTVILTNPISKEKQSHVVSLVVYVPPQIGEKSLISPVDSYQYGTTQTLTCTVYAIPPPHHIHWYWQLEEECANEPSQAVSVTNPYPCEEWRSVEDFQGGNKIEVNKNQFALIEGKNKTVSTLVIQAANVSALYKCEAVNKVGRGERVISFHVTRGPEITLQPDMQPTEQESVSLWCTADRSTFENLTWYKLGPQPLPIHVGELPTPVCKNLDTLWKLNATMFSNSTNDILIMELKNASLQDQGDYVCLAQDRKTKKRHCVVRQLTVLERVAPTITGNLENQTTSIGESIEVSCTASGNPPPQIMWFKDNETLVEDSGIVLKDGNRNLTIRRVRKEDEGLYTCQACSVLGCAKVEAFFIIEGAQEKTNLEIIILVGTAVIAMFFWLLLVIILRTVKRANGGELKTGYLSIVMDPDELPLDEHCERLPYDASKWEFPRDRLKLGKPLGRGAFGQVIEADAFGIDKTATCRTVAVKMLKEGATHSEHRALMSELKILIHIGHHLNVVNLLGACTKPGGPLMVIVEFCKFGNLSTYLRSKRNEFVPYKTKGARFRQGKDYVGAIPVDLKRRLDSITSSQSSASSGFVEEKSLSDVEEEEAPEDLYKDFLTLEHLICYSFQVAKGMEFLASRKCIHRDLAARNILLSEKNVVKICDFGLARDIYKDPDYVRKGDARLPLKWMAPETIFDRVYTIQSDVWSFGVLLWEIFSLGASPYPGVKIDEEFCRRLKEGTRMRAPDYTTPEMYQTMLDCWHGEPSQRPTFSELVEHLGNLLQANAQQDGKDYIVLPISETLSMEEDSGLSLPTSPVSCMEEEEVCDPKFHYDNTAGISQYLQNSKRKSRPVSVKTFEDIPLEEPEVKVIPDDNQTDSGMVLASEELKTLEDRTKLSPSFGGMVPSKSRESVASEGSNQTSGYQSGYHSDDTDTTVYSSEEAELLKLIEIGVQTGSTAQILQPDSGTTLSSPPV
Experiment: cell-based or functional assay

Row | Binder | % Inhibition (Average) of VEGF-C-mediated KDR activity, antibody 1 nM | % Inhibition (Average) of VEGF-C-mediated KDR activity, antibody 10 nM | % Inhibition (Average) of VEGF-C-mediated KDR activity, antibody 100 nM | % Inhibition (N = 1) of VEGF-C-mediated KDR activity, antibody 1 nM | % Inhibition (N = 1) of VEGF-C-mediated KDR activity, antibody 10 nM | % Inhibition (N = 1) of VEGF-C-mediated KDR activity, antibody 100 nM | % Inhibition (N = 2) of VEGF-C-mediated KDR activity, antibody 1 nM | % Inhibition (N = 2) of VEGF-C-mediated KDR activity, antibody 10 nM | % Inhibition (N = 2) of VEGF-C-mediated KDR activity, antibody 100 nM
1 | B1 | 43% | 77% | 81% | 55% | 76% | 75% | 31% | 79% | 86%
2 | B2 | 34% | 71% | 76% | 42% | 71% | 74% | 25% | 72% | 79%
3 | B3 | 49% | 62% | 68% | 45% | 61% | 64% | 53% | 62% | 73%
4 | B4 | 40% | 83% | 84% | 47% | 81% | 84% | 33% | 85% | 84%
5 | B5 | 28% | 84% | 94% | 23% | 78% | 93% | 34% | 90% | 95%
